# B1: CCL18(1–69) (ligand)
# chain: AQVGTNKELCCLVYTSWQIPQKFIVDYSETSPQCPKPGVILLTKRGRQICADPNKKWVQKYISDLKLNA
# B2: murine CCL1 (ligand)
# chain: KSMLTVSNSCCLNTLKKELPLKFIQCYRKMGSSCPDPPAVVFRLNKGRESCASTNKTWVQNHLKKVNPC
# B3: CCL1 (ligand, human, UniProt P22362 24-96, looked up)
# chain: KSMQVPFSRCCFSFAEQEIPLRAILCYRNTSSICSNEGLIFKLKRGKEACALDTVGWVQRHRKMLRHCPSKRK
# Key:
# [1] = target: T1, human CCR3 expressed on 4DE4 cells (human) (UniProt P51677)
# T1 sequence: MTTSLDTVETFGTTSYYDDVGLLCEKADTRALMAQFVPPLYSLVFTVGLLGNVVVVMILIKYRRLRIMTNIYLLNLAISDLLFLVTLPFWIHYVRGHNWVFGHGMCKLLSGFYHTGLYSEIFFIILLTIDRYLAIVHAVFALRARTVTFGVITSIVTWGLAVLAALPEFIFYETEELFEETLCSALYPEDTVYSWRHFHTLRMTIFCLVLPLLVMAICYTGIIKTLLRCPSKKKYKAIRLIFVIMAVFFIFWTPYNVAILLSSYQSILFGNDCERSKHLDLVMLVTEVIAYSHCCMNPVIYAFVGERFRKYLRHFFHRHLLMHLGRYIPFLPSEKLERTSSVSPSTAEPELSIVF
# [2] = target: T2, mCCR8 tagged at the N-terminus with a C-myc epitope tag and at the C-terminus with Renilla luciferase variant 8 (mouse) (UniProt P56484)
# T2 sequence: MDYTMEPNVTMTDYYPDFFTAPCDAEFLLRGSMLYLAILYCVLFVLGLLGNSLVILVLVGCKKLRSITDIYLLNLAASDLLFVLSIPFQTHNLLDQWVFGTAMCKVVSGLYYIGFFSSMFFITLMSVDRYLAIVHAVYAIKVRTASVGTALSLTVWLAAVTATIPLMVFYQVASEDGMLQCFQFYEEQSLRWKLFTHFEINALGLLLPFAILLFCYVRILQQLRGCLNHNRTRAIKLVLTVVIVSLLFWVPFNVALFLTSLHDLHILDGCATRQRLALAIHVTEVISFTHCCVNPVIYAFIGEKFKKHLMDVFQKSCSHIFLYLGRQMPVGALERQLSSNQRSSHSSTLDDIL
# [3] = target: T3, mouse CCR8 expressed on FlpInCHO cells (mouse) (UniProt P56484)
# T3 sequence: T2 sequence
# [4] = target: CCR8 tagged at the N-terminus with a C-myc epitope tag and at the C-terminus with Renilla luciferase variant 8 (human, UniProt P51685 1-355); assay: cell-based or functional assay
# [5] = target: human CCR8 expressed on transfected cells (human, UniProt P51685 1-355); assay: cell-based or functional assay
# human CCR8 expressed on transfected cells, sequence (P51685 whole entry): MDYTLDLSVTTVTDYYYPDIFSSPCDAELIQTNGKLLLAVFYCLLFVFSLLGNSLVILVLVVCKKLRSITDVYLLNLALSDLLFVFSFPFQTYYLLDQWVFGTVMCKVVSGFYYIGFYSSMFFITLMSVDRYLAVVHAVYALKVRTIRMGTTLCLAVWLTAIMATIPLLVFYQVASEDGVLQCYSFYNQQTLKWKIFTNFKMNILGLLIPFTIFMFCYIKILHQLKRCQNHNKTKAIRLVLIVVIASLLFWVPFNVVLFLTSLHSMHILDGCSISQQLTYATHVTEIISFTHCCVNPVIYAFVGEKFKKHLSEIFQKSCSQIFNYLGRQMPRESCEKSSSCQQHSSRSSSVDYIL
# CCR8 tagged at the N-terminus with a C-myc epitope tag and at the C-terminus with Renilla luciferase variant 8, sequence (P51685 whole entry, change not shown): as the sequence (P51685 whole entry) above
binder,measurement,setting,value
B1,inhibition by CCL18 of chemotaxis of 4DE4-CCR3 cells to 1 nM CCL11 (blocks CCL11 with CCR3); 50% inhibitory concentration,[1],< 50 nM
B2,β-arrestin2 recruitment to mCCR8 (BRET) in FlpIn CHO cells; EC50 of mCCL1,[2],24 nM
same,G protein activation in FlpIn CHO cells stably expressing mCCR8; EC50,[3],11 nM
same,cAMP inhibition in FlpIn CHO cells stably expressing mCCR8; EC50,[3],30 nM
B3,β-arrestin2 recruitment to CCR8 (BRET) in FlpIn CHO cells; EC50 of CCL1,[4],21 nM
same,G protein activation (Gαi2; BRET of Gβγ with a GRK fragment) in FlpIn CHO cells stably expressing CCR8; EC50,[5],46 nM
same,inhibition of forskolin-stimulated cAMP synthesis (CAMYEL biosensor) in FlpIn CHO cells stably expressing CCR8; EC50,[5],26 nM

# Source: article PMC11389940, “The chemokine receptor CCR8 is not a high-affinity receptor for the human chemokine CCL18” (PLOS ONE, 2024)
